# Results: article PMC7282669, “The hydrophobic effect characterises the thermodynamic signature of amyloid fibril growth” (PLoS Computational Biology, 2020)
# B1: GNNQQNY, a small fragment of the Sup35 protein (peptide)
# peptide: GNNQQNY
# notes: fragment of the Sup35 protein; Forms amyloid-like microcrystals; also called GNNQQNY peptide
# Target: the molecule itself
# Test: ITC; crystals injected into water; heat of crystal dissolution taken as the negative of the heat of crystal growth; two temperatures
protein,measurement,value
B1,binding result,binds
